The DeepSol protein solubility set

Test: soluble on expression in E. coli; label from the status in PepcDB or PDB records

Sequence | soluble on expression in E. coli
DQVDVKDCANNEIKKVMVDGCHGSDPCIIHRGKPFTLEALFDANQNTKTAKIEIKASLDGLEIDVPGIDTNACHFVKCPLVKGQQYDIKYTWNVPKIAPKSENVVVTVKLIGDNGVLACAIATHGKIRD | soluble
DSDLYAELRCLCIKTTSGIHPKNIQSLEVIGKGTHCNQVEVIATLKDGRKICLDPDAPRIKKIVQKKLAGDESAD | soluble
DSNLLLKLGMLTGRIVPDNQAVYAKDFKPESILGASNLSFRGNVNISEGQSADVVFLNADNGILVQDLPFEVKLKKFHIDFYNTGMPRDFASDIEVTDKATGEKLERTIRVNHPLTLHGITIYQASFADGGSDLTFKAWNLGDASREPVVLKATSIHQFPLEIGKHKYRLEFDQFTSMNVEDMSEGAEREKSLKSTLNDVRAVTQEGKKYTNIGPSIVYRIRDAAGQAVEYKNYMLPVLQEQDYFWITGTRSGLQQQYRWLRIPLDKQLKADTFMALREFLKDGEGRKRLVADATKGAPAEIREQFMLAAENTLNIFAQKGYLGLDEFITSNIPKEQQDKMQGYFYEMLYGVMNAALDETIRRYGLPEWQQDEARNRFLLHSMDAYTGLTEYPAPMLLQLDGFSEVRSSGLQMTRSP | not soluble
DTHFPICIFCCGCCHRSKCGMCCKT | soluble
DVTDIKVKEAEIVSKSVAIREIHHRVKNNLQSVVSLLRIQGRRSTSVEAQKVLNESVSRILAIAATHELLSKQMEDGINLYMVIEAVAYNIERCCNDCPQVAVRMDI | not soluble
DYQIQISISDISEDRTEHQFTSNPEVKTPVGFEQHVESIPEMEDFGLSAAELMDESVPSDFQLDIGLVDDFLEIPSHETEVPQPKVASMQPDTNAKSQKPTVHRGELEAFIYGMGIDPNMVPSQNREQWFEQLGQSFSLMLIGLMETLHNRAVFKQTNRVNHTAFRKSENNPLKFSANLEDAIHNLYNRQTSSFLKPNAAIKEAFNDIENHEQALMQGVAGTVSSVMSLVEPNTIYSDALAKDNVINKVIPARKYAQSWKRFEGIHSQLTDELVNKESPFYLEDFAKHYELALKNKG | not soluble
EDCQNLLKPCSLCEKRPRDGNIIHGRTGHLVTCFHCARRLKKAGASCPICKKEIQLVIKVFIA | soluble
EEATSKGQNLNVEKINGEWFSILLASDKREKIEEHGSMRVFVEHIHVLENSLAFKFHTVIDGECSEIFLVADKTEKAGEYSVMYDGFNTFTILKTDYDNYIMFHLINEKDGKTFQLMELYGRKADLNSDIKEKFVKLCEEHGIIKENIIDLTKTNRCLKARE | soluble
EGKTSSASPNNPQELKRRVIEEGFRRAGIEFGGLKGNSLEALRQFGDPMMATVVGLSLGFKGDVVLAGGTQMLAVAAILKGLGEDLSRFMIATTRWVVEDKSATFIKTAREIGIISYAADLDFSKSEFKGLRDYEKGYVKEGVGAGGATWLAV | not soluble
EGLPVLAPVTKDTATSLYTIPFHDGASLVLDVAGLLVWSTCEGGQSPAEIACSSPTCLLANAYPAPGCPAPSCGSDRHDKPCTAYPSNPVTGACAAGSLFHTRFAANTTDGNKPVSEVNVRVLAACAPSKLLASLPRGSTGVAGLAGSGLALPSQVASAQKVPNKFLLCLPTGGPGVAIFGGGPLPWPQFTQSMDYTPLVAKGGSPAHYISARSIKVENTRVPISERALATGGVMLSTRLPYVLLRRDVYRPLVDAFTKALAAQPANGAPVARAVKPVAPFELCYDTKTLGNNPGGYWVPNVLLELDGGSDWAMTGKNSMVDVKPGTACVAFVEMKGVDAGDGSAPAVILGGAQMEDFVLDFDMEKKRLGFLRLPHFTGCSSFNFARST | soluble
EHKIILYENPNFTGKKMEIVDDDVPSFHAHGYQEKVSSVRVQSGTWVGYQYPGYRGLQYLLEKGDYKDNSDFGAPHPQVQSVRRIRDMQGNPKIIIFEQENFQGHSHELSGPCPNLKETGMEKAGSVLVQAGPWVGYEQANCKGEQFVFEKGEYPRWDSWTSSRRTDSLSSLRPIK | soluble
EHLRLDNDQREKYIQEARNMGSTIRQPKLSNLSPSVIAQTNWKFVEGLLKECRNKTKRMLVEKMGREAVELGHGEVNITGVEENTLIASLCDLLERIWSHGLQVKQGKSALWSHLLHYQENRQRKLTSGSLSTSGILLDSERRKSDASAVMSPLRISLIQDMRHIQNIGEIKTDVGKARAWVRLSMEKKLLSRHLKQLLSDHELTKKLYKRYAFLRCDDEKEQFLYHLLSFNAVDYFCFTNVFTTILIPYHILIVPSKKLGGSMFTANPWICISGELGETQILQIPRNVLEMTFECQNLGKLTTVQIGHDNSGLYAKWLVECVMVRNEVTGHTYKFPCGRWLGKGMDDGSLERVLVGELLTSLPEVDERPCRTPPLQQSPSVIR | soluble
EIEKGGCGDPGIPAYGKRTGSSFLHGDTLTFECPAAFELVGERVITCQQNNQWSGNKPSC | soluble
EKKQAEEALIRSENNFRTLAENSPDIISRFDRQNRHIYVNPAAEEPYGRPPEEIIGKTHSELGMDPEKVKLWESHHEKVFATGKPESMEFGYTSSQGKEYYFNTQVVPEFIDGKVTSILVISHNIT | not soluble
EKPANRQQTLEILAQHIEMDGVRQFLSKSLFKNEDHMAWRFNVDSLLSNYAEIIGWQDIAPTEIPTLFIKGGDSDYLMPEHQPSVQRQFKQAKAHIIANTGHWLHAEKPAEVMRVIRKYISS | not soluble
EKTVRVVINFKKTQKTIVRVSPHASLQELAPIICSKCEFDPLHTLLLKDYQSQEPLDLTKSLNDLGLRELYAMDVNRE | soluble

Sequence | soluble on expression in E. coli
EKVIIEKAAGDAEAIAFDGRTYMEYHNAVTKSPDALDYPAEPSEKALQSNHFELSIKTEATQGLILWSGKGLERSDYIALAIVDGFVQMMYDLGSKPVVLRSTVPINTNHWTHIKAYRVQREGSLQVGNEAPITGSSPLGATQLDTDGALWLGGMERLSVAHKLPKAYSTGFIGCIRDVIVDRQELHLVEDALNNPTILHCSAK | soluble
EMTDLQSTHKDFLFEIEEVGIKNLVYPVLVDQYQTAGTFSFSTSLTKDEKGINMSRIIESVEKHYDNGIELEFNTLYQVLRTLQTNMKQNAAGVDVSGKWFFDRYSPTTNIKAVGNADVTYGLAIDGDKVTRKELTIEATVTTLCPCSKEISEYSAHNQRGVVTVKTYINKDQNIVDDYKNKILDAMEANASSILYPILKRPDEKRVTERAYENPRFVEDLIRLIAADLVEFDWLDGFDIECRNEESIHQHDAFAKLKYRK | not soluble
ENILAGRAKAEKMRLSAERNRNQMEIYRSLQQGDECRKRQIHDYKNQLNCIRGLVDDNRTKEALRYIGQLTGSLNESIHQINTGHPVVNVLLNQKYQSAREQQISMTMTMNNLSELSLSEEDIVTLLANLLDNAIEACLKLHGDRRIQLKMVLEEEELFLSIRNPVEWEVKISGKTAAAAKEKSGEHGLGLGNVDAVIRKNRGRSTLQCQEGWFCFTAVILQPQR | not soluble
EPLRVLELYSGVGGMHHALRESCIPAQVVAAIDVNTVANEVYKYNFPHTQLLAKTIEGITLEEFDRLSFDMILMSPPCQPFTRIGRQGDMTDSRTNSFLHILDILPRLQKLPKYILLENVKGFEVSSTRDLLIQTIENCGFQYQEFLLSPTSLGIPNSRLRYFLIAKLQSEPLPFQAPGQVLMEFPKIEIHRKNQQDSDLSVKMLKDFLEDDTDVNQYLLPPKSLLRYALLLDIVQPTCRRSVCFTKGYGSYIEGTGSVLQTAEDVQVENIYKSLTNLSQEEQITKLLILKLRYFTPKEIANLLGFPPEFGFPEKITVKQRYRLLGNSLNVHVVAKLIKILYE | soluble
EPMQVVKQRRDAALNALVSGVPFIRFLNITFDRRGDELTGVLNFDDKLIGNPFLPAIHGGVTAAFLEVTAVITLSWAHLFERIESGDLAPEDILTDENMRFPKTIDFTIDYLRSGLPRDAYARAYISRAGRRYASVRVEAWQDHHDKLYAQGTGHFLMP | not soluble
EQEMVQVFIPAQAVGAIIGKKGQHIKQLSRFASASIKIAPPETPDSKVRMVIITGPPEAQFKAQGRIYGKLKEENFFGPKEEVKLETHIRVPASAAGRVIGKGGKTVNELQNLTAAEVVVPRDQTPDENDQVIVKIIGHFYASQMAQRKIRDILAQVKQQHQK | soluble
ESSVNPVVLDFEDGTVMSFGEAWGDSLKCIKKVSVSQDLQRPGNKYALRLDVEFNPNNGWDQGDLGTWIGGVVEGQFDFTGYKSVEFEMFIPYDEFSKSQGGFAYKVVINDGWKELGSEFNITANAGKKVKINGKDYTVIHKAFAIPEDFRTKKRAQLVFQFAGQNSNYKGPIYLDNVRIRPEDA | soluble
ETELEQKAIDYDELERLNSTIVSNLNSGLITVTGDGRIRVFNRYAEALTGIGLAEAYDCHLFDVLPGFRVYADVLANVKRGEFEFIAKMGRKLTIGFSSVPLMLKDSDAAGILLNFQDVT | not soluble
EVQLQQSGAELARPGASVKMSCKASGYTFTSYTMHWVKQRPGQGLEWIGYINPSSGYSNYNQKFKDKATLTADKSSSTAYMQLSSLTSEDSAVYYCSRPVVRLGYNFDYWGQGSTLTVSSAKTTPPSVYPLAPGSAAQTNSMVTLGCLVKGYFPEPVTVTWNSGSLSSGVHTFPAVLQSDLYTLSSSVTVPSSTWPSETVTCNVAHPASSTKVDKKIVP | soluble
EVQLVESGGGLVKPGGSLRLSCAASGFTFSSYSMNWVRQAPGKGLEWVSSISSSSSYISYADSVKGRFTISRDNAKNSLYLQMNSLRAEDTAVYFCARDYDFWSAYYDAFDVWGQGTMVTVSSASTKGPSVFPLAPSSKSTSGGTAALGCLVKDYFPEPVTVSWNSGALTSGVHTFPAVLQSSGLYSLSSVVTVPSSSLGTQTYICNVNHKPSNTKVDKKVEPKSCAADEVDHHHHHH | soluble
EVQLVESGGGLVQPGGSLRLSCAASGFTFTSTGISWVRQAPGKGLEWVGRIYPTNGSTNYADSVKGRFTISADTSKNTAYLQMNSLRAEDTAVYYCARTYGIYDLYVDYTEYVMDYWGQGTLVTVSSASTKGPSVFPLAPSSKSTSGGTAALGCLVKDYFPEPVTVSWNSGALTSGVHTFPAVLQSSGLYSLSSVVTVPSSSLGTQTYICNVNHKPSNTKVDKKVEPKSCDKTHT | soluble
EVRLVSLRRAKAHEGLGFSIRGGSEHGVGIYVSLVEPGSLAEKEGLRVGDQILRVNDKSLARVTHAEAVKALKGSKKLVLSVYSAGRI | soluble
EVVVTGMQKMDKRLFTGAATKLDAEGVKLNGMADISRGLEGRAAGVSVQNVSGTFGTAPKIRVRGATSIYGSSKPLWVVDGVIMEDAVEVSADQLSSGDAETLISSAIAGLNADDIESFQILKDGSATSIYGARAMAGVIVVTTKKGK | not soluble
FASNWVSHTHEVIQTIDTCLYDIVEIESRQRFYLIRGSSSQLMADIDDMKSTLQLNLDKLEQLTRDNPEQNKRIHRFIDLVKQRLNLLNQLVQLKGSGKLDTQEGYDLLNQSQDMSHQVKSLGQEIKSVELVLLSERNTG | not soluble
FINDVDLIITVEELDSFLEDQLLQLLGKHDISKTVYGKKNNIFPCCGEYSVDIVKTGINKVLDILKIQKIEISEKLIEKTDIIPLPVRPPNLCAGCMHRTVFYAFKEVSKDLKKQNIQIIFSGDIGCYTLGNAPPLELIDTCLCMGAGISLAGGI | not soluble
